Sequences and labels used below:
B1: anti-IL-6 antibody, heavy chain S35F, G66D / light chain M32L, M50D, N52S, M88Q (antibody, human IgG1, V domains shown)
VH: EVQLVESGGGLVQPGGSLRLSCAASGFTFSPFAMFWVRQAPGKGLEWVAKISPGGSWTYYSDTVTDRFTFSLDTSKSTAYLQMNSLRAEDTAVYYCARQLWGYYALDIWGQGTLVTVSS
VL: DIQLTQSPSSLSASVGDRVTITCSASISVSYLYWYQQKPGKAPKLLIYDDSSLASGVPSRFSGSGSGTDFTLTISSLQPEDFATYYCQQWSGYPYTFGQGTKVEIK
notes: Human IgG1
B2: anti-IL-6 antibody, heavy chain S35Q, G66D / light chain M32L, M50D, N52S, M88Q (antibody, human IgG1, V domains shown)
VH: EVQLVESGGGLVQPGGSLRLSCAASGFTFSPFAMQWVRQAPGKGLEWVAKISPGGSWTYYSDTVTDRFTFSLDTSKSTAYLQMNSLRAEDTAVYYCARQLWGYYALDIWGQGTLVTVSS
VL: DIQLTQSPSSLSASVGDRVTITCSASISVSYLYWYQQKPGKAPKLLIYDDSSLASGVPSRFSGSGSGTDFTLTISSLQPEDFATYYCQQWSGYPYTFGQGTKVEIK
notes: Human IgG1
B3: anti-IL-6 antibody, heavy chain S35K, G66D / light chain M32L, M50D, N52S, M88Q (antibody, human IgG1, V domains shown)
VH: EVQLVESGGGLVQPGGSLRLSCAASGFTFSPFAMKWVRQAPGKGLEWVAKISPGGSWTYYSDTVTDRFTFSLDTSKSTAYLQMNSLRAEDTAVYYCARQLWGYYALDIWGQGTLVTVSS
VL: DIQLTQSPSSLSASVGDRVTITCSASISVSYLYWYQQKPGKAPKLLIYDDSSLASGVPSRFSGSGSGTDFTLTISSLQPEDFATYYCQQWSGYPYTFGQGTKVEIK
notes: Human IgG1
B4: anti-IL-6 antibody, heavy chain S35W, G66D / light chain M32L, M50D, N52S, M88Q (antibody, human IgG1, V domains shown)
VH: EVQLVESGGGLVQPGGSLRLSCAASGFTFSPFAMWWVRQAPGKGLEWVAKISPGGSWTYYSDTVTDRFTFSLDTSKSTAYLQMNSLRAEDTAVYYCARQLWGYYALDIWGQGTLVTVSS
VL: DIQLTQSPSSLSASVGDRVTITCSASISVSYLYWYQQKPGKAPKLLIYDDSSLASGVPSRFSGSGSGTDFTLTISSLQPEDFATYYCQQWSGYPYTFGQGTKVEIK
notes: Human IgG1
B5: anti-IL-6 antibody, heavy chain S35T, G66D / light chain M32L, M50D, N52S, M88Q (antibody, human IgG1, V domains shown)
VH: EVQLVESGGGLVQPGGSLRLSCAASGFTFSPFAMTWVRQAPGKGLEWVAKISPGGSWTYYSDTVTDRFTFSLDTSKSTAYLQMNSLRAEDTAVYYCARQLWGYYALDIWGQGTLVTVSS
VL: DIQLTQSPSSLSASVGDRVTITCSASISVSYLYWYQQKPGKAPKLLIYDDSSLASGVPSRFSGSGSGTDFTLTISSLQPEDFATYYCQQWSGYPYTFGQGTKVEIK
notes: Human IgG1
B6: anti-IL-6 antibody, heavy chain S35G, G66D / light chain M32L, M50D, N52S, M88Q (antibody, human IgG1, V domains shown)
VH: EVQLVESGGGLVQPGGSLRLSCAASGFTFSPFAMGWVRQAPGKGLEWVAKISPGGSWTYYSDTVTDRFTFSLDTSKSTAYLQMNSLRAEDTAVYYCARQLWGYYALDIWGQGTLVTVSS
VL: DIQLTQSPSSLSASVGDRVTITCSASISVSYLYWYQQKPGKAPKLLIYDDSSLASGVPSRFSGSGSGTDFTLTISSLQPEDFATYYCQQWSGYPYTFGQGTKVEIK
notes: Human IgG1
B7: anti-IL-6 antibody, heavy chain S35I, G66D / light chain M32L, M50D, N52S, M88Q (antibody, human IgG1, V domains shown)
VH: EVQLVESGGGLVQPGGSLRLSCAASGFTFSPFAMIWVRQAPGKGLEWVAKISPGGSWTYYSDTVTDRFTFSLDTSKSTAYLQMNSLRAEDTAVYYCARQLWGYYALDIWGQGTLVTVSS
VL: DIQLTQSPSSLSASVGDRVTITCSASISVSYLYWYQQKPGKAPKLLIYDDSSLASGVPSRFSGSGSGTDFTLTISSLQPEDFATYYCQQWSGYPYTFGQGTKVEIK
notes: Human IgG1
B8: anti-IL-6 antibody, heavy chain T63A, G66D / light chain M32L, M50D, N52S, M88Q (antibody, human IgG1, V domains shown)
VH: EVQLVESGGGLVQPGGSLRLSCAASGFTFSPFAMSWVRQAPGKGLEWVAKISPGGSWTYYSDAVTDRFTFSLDTSKSTAYLQMNSLRAEDTAVYYCARQLWGYYALDIWGQGTLVTVSS
VL: DIQLTQSPSSLSASVGDRVTITCSASISVSYLYWYQQKPGKAPKLLIYDDSSLASGVPSRFSGSGSGTDFTLTISSLQPEDFATYYCQQWSGYPYTFGQGTKVEIK
notes: Human IgG1
B9: anti-IL-6 antibody, heavy chain S35P, G66D / light chain M32L, M50D, N52S, M88Q (antibody, human IgG1, V domains shown)
VH: EVQLVESGGGLVQPGGSLRLSCAASGFTFSPFAMPWVRQAPGKGLEWVAKISPGGSWTYYSDTVTDRFTFSLDTSKSTAYLQMNSLRAEDTAVYYCARQLWGYYALDIWGQGTLVTVSS
VL: DIQLTQSPSSLSASVGDRVTITCSASISVSYLYWYQQKPGKAPKLLIYDDSSLASGVPSRFSGSGSGTDFTLTISSLQPEDFATYYCQQWSGYPYTFGQGTKVEIK
notes: Human IgG1
B10: anti-IL-6 antibody, heavy chain S35Y, G66D / light chain M32L, M50D, N52S, M88Q (antibody, human IgG1, V domains shown)
VH: EVQLVESGGGLVQPGGSLRLSCAASGFTFSPFAMYWVRQAPGKGLEWVAKISPGGSWTYYSDTVTDRFTFSLDTSKSTAYLQMNSLRAEDTAVYYCARQLWGYYALDIWGQGTLVTVSS
VL: DIQLTQSPSSLSASVGDRVTITCSASISVSYLYWYQQKPGKAPKLLIYDDSSLASGVPSRFSGSGSGTDFTLTISSLQPEDFATYYCQQWSGYPYTFGQGTKVEIK
notes: Human IgG1
B11: anti-IL-6 antibody, heavy chain S35L, G66D / light chain M32L, M50D, N52S, M88Q (antibody, human IgG1, V domains shown)
VH: EVQLVESGGGLVQPGGSLRLSCAASGFTFSPFAMLWVRQAPGKGLEWVAKISPGGSWTYYSDTVTDRFTFSLDTSKSTAYLQMNSLRAEDTAVYYCARQLWGYYALDIWGQGTLVTVSS
VL: DIQLTQSPSSLSASVGDRVTITCSASISVSYLYWYQQKPGKAPKLLIYDDSSLASGVPSRFSGSGSGTDFTLTISSLQPEDFATYYCQQWSGYPYTFGQGTKVEIK
notes: Human IgG1
B12: anti-IL-6 antibody, heavy chain S35V, G66D / light chain M32L, M50D, N52S, M88Q (antibody, human IgG1, V domains shown)
VH: EVQLVESGGGLVQPGGSLRLSCAASGFTFSPFAMVWVRQAPGKGLEWVAKISPGGSWTYYSDTVTDRFTFSLDTSKSTAYLQMNSLRAEDTAVYYCARQLWGYYALDIWGQGTLVTVSS
VL: DIQLTQSPSSLSASVGDRVTITCSASISVSYLYWYQQKPGKAPKLLIYDDSSLASGVPSRFSGSGSGTDFTLTISSLQPEDFATYYCQQWSGYPYTFGQGTKVEIK
notes: Human IgG1
B13: anti-IL-6 antibody, heavy chain T63D, G66D / light chain M32L, M50D, N52S, M88Q (antibody, human IgG1, V domains shown)
VH: EVQLVESGGGLVQPGGSLRLSCAASGFTFSPFAMSWVRQAPGKGLEWVAKISPGGSWTYYSDDVTDRFTFSLDTSKSTAYLQMNSLRAEDTAVYYCARQLWGYYALDIWGQGTLVTVSS
VL: DIQLTQSPSSLSASVGDRVTITCSASISVSYLYWYQQKPGKAPKLLIYDDSSLASGVPSRFSGSGSGTDFTLTISSLQPEDFATYYCQQWSGYPYTFGQGTKVEIK
notes: Human IgG1

These results are taken from US20240209076A1 (KODIAK SCIENCES, published 2024).

The assay deals with human IL-6 (human, UniProt P05231 30-212). Put plainly: SPR (Biacore), supernatant antibody on Protein A chip, IL-6 flowed, 37 C. How it is done: Antibodies were captured on a Protein A chip (GE) by injecting 1:20 cell supernatant dilutions at 10 μL/min for 60 seconds. […] The sensor chip was regenerated by a 60 seconds injection of 10 mM Glycine pH 1.7 at the flow rate of 50 μL/min. […] For this setup, 1 μg/mL of purified antibody was injected over a Protein A chip at 10 μL/min for 25 seconds. […] The sensor chip was regenerated by a 60 seconds injection of 10 mM Glycine pH 1.7 at flow rate of 50 μL/min. Data analysis for supernatant and purified samples were performed using BIAevaluation software (GE). All sensorgrams were double reference subtracted and fit using a 1:1 Langmuir binding model.
human IL-6, sequence (P05231 30-212 limits assumed): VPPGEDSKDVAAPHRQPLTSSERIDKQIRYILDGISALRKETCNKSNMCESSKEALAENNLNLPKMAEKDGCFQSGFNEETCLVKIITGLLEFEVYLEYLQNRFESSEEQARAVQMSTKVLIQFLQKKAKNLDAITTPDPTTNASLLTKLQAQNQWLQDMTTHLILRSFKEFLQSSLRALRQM
For orientation: Surface plasmon resonance follows binding to a sensor surface in real time, without labels.
Broadly, the Kd is the concentration at which binding is half-saturated. Broadly, the koff is the first-order rate constant of dissociation. Low readings indicate a long-lived complex, high ones a short-lived complex. The term kon denotes a measure of how fast the partners come together. Read a high kon as fast association. The molecule B1 showed a Kd of 3.17 nM, a koff of 0.00484 s⁻¹ and a kon of 1.53e+06 M⁻¹ s⁻¹.
On the same counts, the results for B2 are 0.3 nM, 0.000626 s⁻¹ and 2.09e+06 M⁻¹ s⁻¹.
As for B3, the Kd was 2.64 nM, the koff was 0.00346 s⁻¹ and the kon stood at 1.31e+06 M⁻¹ s⁻¹.
As to B4, the Kd came out at 34.6 nM, the koff was 0.00591 s⁻¹ and the kon came out at 171000 M⁻¹ s⁻¹.
For B5 the same measures were 0.498 nM, 0.000711 s⁻¹ and 1.43e+06 M⁻¹ s⁻¹.
B6: binding was characterised by a dissociation constant (Kd) of 0.609 nM, the koff amounted to 0.000781 s⁻¹ and the kon came to 1.28e+06 M⁻¹ s⁻¹.
With B7, binding was put at a Kd of 1.62 nM, the off-rate (koff) was found to be 0.00147 s⁻¹ and the kon is 904000 M⁻¹ s⁻¹.
Regarding B8, binding was put at a Kd of 0.268 nM, the koff was found to be 0.000458 s⁻¹ and the kon worked out at 1.7e+06 M⁻¹ s⁻¹.
For B9 the same measures were 27.1 nM, 0.00548 s⁻¹ and 202000 M⁻¹ s⁻¹.
On to B10, for which the Kd was determined as 3.43 nM, the koff was 0.00404 s⁻¹ and the kon stood at 1.18e+06 M⁻¹ s⁻¹.
On the same counts, the results for B11 are 2.59 nM, 0.00243 s⁻¹ and 942000 M⁻¹ s⁻¹.
For B12 the same measures were 1.33 nM, 0.00137 s⁻¹ and 1.03e+06 M⁻¹ s⁻¹.
Take B13: the Kd was determined as 0.249 nM, the koff worked out at 0.000413 s⁻¹ and the kon turned out to be 1.66e+06 M⁻¹ s⁻¹.
